{"source": "the RNAGym collection of RNA variant scans (doi:10.7554/elife.80360)", "parents": {"B1": {"name": "Twister Ribozyme (parent)", "chain": "AACACUGCCAAUGCCGGUCCCAAGCCCGGAUAAAAGUGGAGGGGGCGG"}}, "data": [{"variants_of": "B1", "assay": "self-cleavage, relative activity (ratio to wild type); higher = more cleavage; co-transcriptional", "values": [{"variant": "CACACUGCCAAUGCCGGUCCCAAGCCCGGAUAGAAGUGGAGGGGGCGG", "self-cleavage": 0.116}, {"variant": "CACACUGCCAAUGCCGGUCCCAAGCCCGGAUACAAGUGGAGGGGGCGG", "self-cleavage": 0.169}, {"variant": "CACACUGCCAAUGCCGGUCCCAAGCUCGGAUAAAAGUGGAGGGGGCGG", "self-cleavage": 0.133}, {"variant": "CACACUGCCAAUGCCGGUCCCAAGCGCGGAUAAAAGUGGAGGGGGCGG", "self-cleavage": 0.171}, {"variant": "CACACUGCCAAUGCCGGUCCCAAGCACGGAUAAAAGUGGAGGGGGCGG", "self-cleavage": 0.171}, {"variant": "GACACUGCCAAUGGCGGUCCCAAGCCCGGAUAAAAGUGGAGGGGGCGG", "self-cleavage": 0.168}, {"variant": "GACACUGCCAAUGUCGGUCCCAAGCCCGGAUAAAAGUGGAGGGGGCGG", "self-cleavage": 0.693}, {"variant": "GACACUGCCAAUGACGGUCCCAAGCCCGGAUAAAAGUGGAGGGGGCGG", "self-cleavage": 0.467}, {"variant": "CACACUGCCAAUGCCGGACCCAAGCCCGGAUAAAAGUGGAGGGGGCGG", "self-cleavage": 0.14}, {"variant": "CACACUGCCAAUGCCGGCCCCAAGCCCGGAUAAAAGUGGAGGGGGCGG", "self-cleavage": 0.17}, {"variant": "CAAACUGCCAAUGCCGGUCCCAAGCCCGGAUAAAAGUGGAGGGGGCGG", "self-cleavage": 0.193}, {"variant": "CAUACUGCCAAUGCCGGUCCCAAGCCCGGAUAAAAGUGGAGGGGGCGG", "self-cleavage": 0.208}, {"variant": "GACACUGCCAAUGCAGGUCCCAAGCCCGGAUAAAAGUGGAGGGGGCGG", "self-cleavage": 0.265}, {"variant": "GACACUGCCAAUGCGGGUCCCAAGCCCGGAUAAAAGUGGAGGGGGCGG", "self-cleavage": 0.125}, {"variant": "CACACUGCCAAUGCCGGUCCCAAGCCCGGAUAAAAGUGGAGUGGGCGG", "self-cleavage": 0.169}, {"variant": "CACACUGCCAAUGCCGGUCCCAAGCCCGGAUAAAAGUGGAGCGGGCGG", "self-cleavage": 0.239}, {"variant": "GACACUGCCAAUGCCGGUCGCAAGCCCGGAUAAAAGUGGAGGGGGCGG", "self-cleavage": 0.134}, {"variant": "CACACUUCCAAUGCCGGUCCCAAGCCCGGAUAAAAGUGGAGGGGGCGG", "self-cleavage": 0.149}, {"variant": "CACACUGGCAAUGCCGGUCCCAAGCCCGGAUAAAAGUGGAGGGGGCGG", "self-cleavage": 0.187}, {"variant": "GACACUGCCAAUGCCGGUGCCAAGCCCGGAUAAAAGUGGAGGGGGCGG", "self-cleavage": 0.202}, {"variant": "GACACUGCCAAUGCCGGUUCCAAGCCCGGAUAAAAGUGGAGGGGGCGG", "self-cleavage": 0.345}, {"variant": "GACACUGCCAAUGCCGGUCCCAAGCCCGGAUAAGAGUGGAGGGGGCGG", "self-cleavage": 0.361}, {"variant": "GACACUGCCAAUGCCGGUCCCAAGCCCGGAUAAUAGUGGAGGGGGCGG", "self-cleavage": 0.24}, {"variant": "CACACUGCCAAUGCCGGUCCCAAGCCCGGAUAAAAGUUGAGGGGGCGG", "self-cleavage": 0.22}, {"variant": "CACACUGCCAAUGCCGGUCCCAAGCCCGGAUAAGAGUGGAGGGGGCGG", "self-cleavage": 0.19}, {"variant": "CACACUGCCAAUGCCGGUCCCAAGCCCGGAUAAUAGUGGAGGGGGCGG", "self-cleavage": 0.176}, {"variant": "CACACUGCCAAUGCCGGUCCCAAUCCCGGAUAAAAGUGGAGGGGGCGG", "self-cleavage": 0.111}, {"variant": "CACACUGCCAAUGCCGGUCCCAAACCCGGAUAAAAGUGGAGGGGGCGG", "self-cleavage": 0.161}, {"variant": "CACACUGCCAUUGCCGGUCCCAAGCCCGGAUAAAAGUGGAGGGGGCGG", "self-cleavage": 0.176}, {"variant": "CACACCGCCAAUGCCGGUCCCAAGCCCGGAUAAAAGUGGAGGGGGCGG", "self-cleavage": 0.147}, {"variant": "CACACAGCCAAUGCCGGUCCCAAGCCCGGAUAAAAGUGGAGGGGGCGG", "self-cleavage": 0.189}, {"variant": "CACACGGCCAAUGCCGGUCCCAAGCCCGGAUAAAAGUGGAGGGGGCGG", "self-cleavage": 0.0831}, {"variant": "CACACUGCCAAUGCCGGUCCCAAGCCCGGAUAAAAGUGGAUGGGGCGG", "self-cleavage": 0.199}, {"variant": "CACACUGCCAAUGCCGGUCCCAAGCCCGGAUAAAAGUGGAAGGGGCGG", "self-cleavage": 0.143}, {"variant": "CACACUGCCAAUGCCGGUCCCAAGCCCGGAUAAAAGUGGACGGGGCGG", "self-cleavage": 0.14}, {"variant": "CACACUGCCAAUGCCGGUCCCAAGCCCGGAUAAAAUUGGAGGGGGCGG", "self-cleavage": 0.173}, {"variant": "CACACUGCCAAUGCCGGUCCCAAGCCCGGAUAAAAAUGGAGGGGGCGG", "self-cleavage": 0.203}, {"variant": "GACACUGCCAAUGCCGGUCCCCAGCCCGGAUAAAAGUGGAGGGGGCGG", "self-cleavage": 0.325}, {"variant": "CACACUGCCAAUGUCGGUCCCAAGCCCGGAUAAAAGUGGAGGGGGCGG", "self-cleavage": 0.19}, {"variant": "CACACUGCCAAUGACGGUCCCAAGCCCGGAUAAAAGUGGAGGGGGCGG", "self-cleavage": 0.222}, {"variant": "CACACUGCCAAUGCCGGUCCCAAGCCCGGAUAAAAGAGGAGGGGGCGG", "self-cleavage": 0.148}, {"variant": "CACACUGCCAAUGCCGGUCCCAAGCCCGGAUAAAAGUGGAGGUGGCGG", "self-cleavage": 0.179}, {"variant": "CACACUGCCAAUGCCGGUCCCAAGCCUGGAUAAAAGUGGAGGGGGCGG", "self-cleavage": 0.138}, {"variant": "CACACUGCCAAUGCCGGUCCCAAGCCGGGAUAAAAGUGGAGGGGGCGG", "self-cleavage": 0.121}, {"variant": "CACAUUGCCAAUGCCGGUCCCAAGCCCGGAUAAAAGUGGAGGGGGCGG", "self-cleavage": 0.277}, {"variant": "CACACUGCCAACGCCGGUCCCAAGCCCGGAUAAAAGUGGAGGGGGCGG", "self-cleavage": 0.144}, {"variant": "GACACUGCCAAUGCCGGUCCCAAGCCCGGAUCAAAGUGGAGGGGGCGG", "self-cleavage": 0.497}, {"variant": "GACACUGCCAAUGCCGGUCCCAAGCCCGGAUGAAAGUGGAGGGGGCGG", "self-cleavage": 0.507}, {"variant": "GACACUGCCAAUGCCGGUCCCAAGCCCGGAUUAAAGUGGAGGGGGCGG", "self-cleavage": 0.459}, {"variant": "CACACUGCCAAUGCCGGUCACAAGCCCGGAUAAAAGUGGAGGGGGCGG", "self-cleavage": 0.104}, {"variant": "CACACUGCCAAUGCCGGUCCCAAGCCCGGAUAAAAGUGAAGGGGGCGG", "self-cleavage": 0.162}, {"variant": "CACACUGCCAAUGCCGGUCCCAAGCCCGGAUAAAAGUGCAGGGGGCGG", "self-cleavage": 0.145}, {"variant": "GACACUGCCAAUGCCGGUCCCAAGCCCGGAUAGAAGUGGAGGGGGCGG", "self-cleavage": 0.499}, {"variant": "GACACUGCCAAUGCCGGUCCCAAGCCCGGAUAUAAGUGGAGGGGGCGG", "self-cleavage": 0.512}]}]}
